± gives the standard deviation of the averaged measurements.
Each sequence was assayed on ATP (assay: switch fluorescence ratio, 500 uM ATP over buffer (Cy3 cluster intensity, sum of 5 cycles each) (fold (ratio)); higher = stronger signal-on switching upon ATP binding; sequences stand for … in TCGTCGGCAGCGTCAGATGTGTATAAGAGACAGTTTTTTTTTTTTTTTTTTTTTTTTT…TC). Conditions: aptamer strand: ATP DNA aptamer (quencher-CACCTGGGGGAGTATTGCGGAGGAAGG + anchor), 100 nM annealed; ATP concentration: 500 uM.
In short: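 Per cluster, summed Cy3 intensity from the target cycles was divided by that from the buffer cycles to give the fluorescence ratio, then averaged per switch-domain sequence. Clusters outside 100-1000 RFU were excluded. The Cy3-labelled switching-strand clusters, on a modified Illumina MiSeq flow-cell, were annealed to 100 nM quencher-labelled ATP aptamer and imaged in selection buffer, then after 15 min with 500 uM ATP at 22 °C, for five cycles with NaOH stripping and re-annealing between them.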
CGATATTGCC was tested, and the switch fluorescence ratio was 0.9909 ± 0.0097. For CGATCAATAT, the switch fluorescence ratio was 2.38 ± 0.035. CGATCCGCGG gave a switch fluorescence ratio of 0.942 ± 0.14. CGATGAGTTT was tested, and the switch fluorescence ratio was 1.01 ± 0.033. For CGATGATGGA, the switch fluorescence ratio was 0.999 ± 0.017. With CGATGCGGTG the switch fluorescence ratio was 1.05 ± 0.033. CGATGGCGTT gave a switch fluorescence ratio of 0.96 ± 0.016. CGATGGCTA gave a switch fluorescence ratio of 0.965 ± 0.041. CGATGTAGGT gave a switch fluorescence ratio of 1.02 ± 0.025. CGATGTAGTA was tested, and the switch fluorescence ratio was 1.016 ± 0.0058. Sequence CGATGTATTT has a switch fluorescence ratio of 1.01 ± 0.048. CGATGTGGGT showed a switch fluorescence ratio of 0.989 ± 0.044. With CGATGTTTAG the switch fluorescence ratio was 0.986 ± 0.019. CGATTACGAT gave a switch fluorescence ratio of 1.01 ± 0.03. Work on CGATTAGGGG yielded a switch fluorescence ratio of 1 ± 0.012. Work on CGATTAGTTG yielded a switch fluorescence ratio of 0.998 ± 0.032. CGATTCTCAA showed a switch fluorescence ratio of 1.021 ± 0.0006. For CGATTCTGAG, the switch fluorescence ratio was 1 ± 0.024. In the case of CGATTGCGTG, the switch fluorescence ratio is reported as 1 ± 0.05. Work on CGATTGTCTG yielded a switch fluorescence ratio of 0.958 ± 0.02. CGATTGTGCG was tested, and the switch fluorescence ratio was 1.04 ± 0.029. CGATTTCAGA was tested, and the switch fluorescence ratio was 1.009 ± 0.01. CGATTTGGGT gave a switch fluorescence ratio of 1.02 ± 0.042. CGATTTGTAA showed a switch fluorescence ratio of 0.99 ± 0.031. For CGATTTTCCT, the switch fluorescence ratio was 1.01 ± 0.015. CGATTTTGAT gave a switch fluorescence ratio of 1.01 ± 0.013. Sequence CGCAAAATTT has a switch fluorescence ratio of 1.11 ± 0.11. With CGCAAAGGGG the switch fluorescence ratio was 1.39 ± 0.29. In the case of CGCACAGTCA, the switch fluorescence ratio is reported as 1.06 ± 0.023. For CGCACGGGGG, the switch fluorescence ratio was 1.01 ± 0.031. Sequence CGCAGTTTTA has a switch fluorescence ratio of 1.055 ± 0.0065. For CGCATGTACG, the switch fluorescence ratio was 1.14 ± 0.16. For CGCATTAAGG, the switch fluorescence ratio was 1.11 ± 0.03. CGCCAGCAGC was tested, and the switch fluorescence ratio was 1.6 ± 0.035. With CGCCCTCAAG the switch fluorescence ratio was 1.03 ± 0.029. For CGCCGAGTTT, the switch fluorescence ratio was 1.05 ± 0.071. Sequence CGCCGTCTGG has a switch fluorescence ratio of 1.03 ± 0.0039. Sequence CGCCTCGAGG has a switch fluorescence ratio of 0.9786 ± 0.0027. With CGCCTGGCTT the switch fluorescence ratio was 1 ± 0.013. CGCCTTAATT was tested, and the switch fluorescence ratio was 1.01 ± 0.042. For CGCGAGGGCC, the switch fluorescence ratio was 1.1 ± 0.08. Work on CGCGATATTG yielded a switch fluorescence ratio of 1.58 ± 0.018. Sequence CGCGCGGAAC has a switch fluorescence ratio of 0.98 ± 0.019. CGCGGAGGGT showed a switch fluorescence ratio of 0.967 ± 0.016. In the case of CGCGGCAGGA, the switch fluorescence ratio is reported as 1.02 ± 0.019. With CGCGGGATGT the switch fluorescence ratio was 1.02 ± 0.045. With CGCGGGGAGC the switch fluorescence ratio was 1.07 ± 0.088. CGCGGGGGGT gave a switch fluorescence ratio of 0.992 ± 0.018. CGCGGGTATT showed a switch fluorescence ratio of 1.02 ± 0.017. CGCGGGTGGT showed a switch fluorescence ratio of 1.02 ± 0.012. Sequence CGCGGGTTCA has a switch fluorescence ratio of 1.03 ± 0.037. CGCGGTTGAC gave a switch fluorescence ratio of 1.12 ± 0.03. CGCGTACATT showed a switch fluorescence ratio of 1.05 ± 0.077. In the case of CGCGTACGGA, the switch fluorescence ratio is reported as 0.989 ± 0.005. CGCGTTATGT was tested, and the switch fluorescence ratio was 1.03 ± 0.0081. CGCGTTGTGG gave a switch fluorescence ratio of 1.03 ± 0.012. In the case of CGCTACAATG, the switch fluorescence ratio is reported as 1.0456 ± 0.00099. Sequence CGCTAGGAGG has a switch fluorescence ratio of 0.997 ± 0.036. For CGCTAGGGGA, the switch fluorescence ratio was 1.07 ± 0.041. In the case of CGCTAGGGGG, the switch fluorescence ratio is reported as 1.06 ± 0.026. With CGCTCAAGGG the switch fluorescence ratio was 1.031 ± 0.0042. Sequence CGCTCGTATT has a switch fluorescence ratio of 1.019 ± 0.009. Sequence CGCTCTGCGT has a switch fluorescence ratio of 1.01 ± 0.033. CGCTGAAAGG was tested, and the switch fluorescence ratio was 1.02 ± 0.026. CGCTGACATT was tested, and the switch fluorescence ratio was 1.019 ± 0.0034. For CGCTGAGAGG, the switch fluorescence ratio was 1 ± 0.027. Work on CGCTGCTCGA yielded a switch fluorescence ratio of 1.06 ± 0.013. For CGCTGGTTGT, the switch fluorescence ratio was 0.9855 ± 0.0013. In the case of CGCTTATATC, the switch fluorescence ratio is reported as 2.8 ± 0.32. Work on CGCTTATTAA yielded a switch fluorescence ratio of 1.072 ± 0.0033. Work on CGCTTCGTGA yielded a switch fluorescence ratio of 1.06 ± 0.059. For CGCTTGCCAG, the switch fluorescence ratio was 0.972 ± 0.027. In the case of CGCTTTGGCG, the switch fluorescence ratio is reported as 0.959 ± 0.061. Sequence CGCTTTGGGT has a switch fluorescence ratio of 0.99 ± 0.018. Sequence CGGAAAAAAT has a switch fluorescence ratio of 1.19 ± 0.19. CGGAAAAGGG showed a switch fluorescence ratio of 0.993 ± 0.064. For CGGAAAATGT, the switch fluorescence ratio was 0.962 ± 0.016. With CGGAACATGC the switch fluorescence ratio was 1.6 ± 0.12. In the case of CGGAACCACG, the switch fluorescence ratio is reported as 1.08 ± 0.045. Work on CGGAACGCA yielded a switch fluorescence ratio of 2.01 ± 0.046. For CGGAACGCGA, the switch fluorescence ratio was 4.09 ± 0.093. With CGGAAGATTA the switch fluorescence ratio was 0.9588 ± 0.0045. Work on CGGAAGCATT yielded a switch fluorescence ratio of 1.44 ± 0.017. CGGAAGGCTT showed a switch fluorescence ratio of 0.982 ± 0.0095. CGGAAGTCTT gave a switch fluorescence ratio of 0.992 ± 0.024. For CGGAAGTTGG, the switch fluorescence ratio was 0.996 ± 0.02. CGGAATGATA gave a switch fluorescence ratio of 1 ± 0.018. In the case of CGGAATGGTA, the switch fluorescence ratio is reported as 1.08 ± 0.067. In the case of CGGAATGTGT, the switch fluorescence ratio is reported as 1 ± 0.015. Work on CGGAATGTTT yielded a switch fluorescence ratio of 1.05 ± 0.057. With CGGACAGGGA the switch fluorescence ratio was 1.03 ± 0.035. In the case of CGGACAGGGT, the switch fluorescence ratio is reported as 0.992 ± 0.013. Work on CGGACCGGAA yielded a switch fluorescence ratio of 1.011 ± 0.01. With CGGACGGGGG the switch fluorescence ratio was 0.999 ± 0.036. Work on CGGACGTTGG yielded a switch fluorescence ratio of 0.973 ± 0.045. CGGAGAAGGA showed a switch fluorescence ratio of 0.98471 ± 0.00067. With CGGAGCGGCG the switch fluorescence ratio was 1.042 ± 0.0095. Work on CGGAGGCAGG yielded a switch fluorescence ratio of 1.21 ± 0.28. Work on CGGAGGCGTT yielded a switch fluorescence ratio of 0.986 ± 0.041. For CGGAGGGGAA, the switch fluorescence ratio was 1 ± 0.014. With CGGAGGGGTA the switch fluorescence ratio was 1.13 ± 0.16. In the case of CGGAGGTAAG, the switch fluorescence ratio is reported as 0.994 ± 0.011. In the case of CGGAGTAACG, the switch fluorescence ratio is reported as 1.04 ± 0.03. With CGGAGTGAGG the switch fluorescence ratio was 1.02 ± 0.014. CGGAGTGCGG showed a switch fluorescence ratio of 0.983 ± 0.064. CGGAGTGCTT was tested, and the switch fluorescence ratio was 1.03 ± 0.021. In the case of CGGAGTGGTA, the switch fluorescence ratio is reported as 1.09 ± 0.014. CGGAGTGTGC gave a switch fluorescence ratio of 1.23 ± 0.047. CGGAGTTGGA showed a switch fluorescence ratio of 1.04 ± 0.041. In the case of CGGATCCTTC, the switch fluorescence ratio is reported as 1.02 ± 0.037. Work on CGGATCTCGC yielded a switch fluorescence ratio of 1.03 ± 0.01. In the case of CGGATCTGAA, the switch fluorescence ratio is reported as 1.01 ± 0.016. CGGATCTTGT was tested, and the switch fluorescence ratio was 0.961 ± 0.021. For CGGATGGCGA, the switch fluorescence ratio was 1.03 ± 0.021. CGGATGTAGC gave a switch fluorescence ratio of 1.02 ± 0.063. For CGGATGTATA, the switch fluorescence ratio was 0.988 ± 0.014. Work on CGGATGTTGC yielded a switch fluorescence ratio of 1.03 ± 0.05. Work on CGGATGTTGG yielded a switch fluorescence ratio of 1.02 ± 0.12. In the case of CGGATTCGAT, the switch fluorescence ratio is reported as 1.01 ± 0.011. For CGGATTTGGA, the switch fluorescence ratio was 0.976 ± 0.051. Work on CGGATTTTTT yielded a switch fluorescence ratio of 0.995 ± 0.021. In the case of CGGCAAATAG, the switch fluorescence ratio is reported as 2.52 ± 0.3. For CGGCAAGGCT, the switch fluorescence ratio was 1.22 ± 0.1. Sequence CGGCACCACA has a switch fluorescence ratio of 1.08 ± 0.015. CGGCATTAAA was tested, and the switch fluorescence ratio was 0.995 ± 0.0058. CGGCCCGCGA showed a switch fluorescence ratio of 1.94 ± 0.96. Work on CGGCCTGATA yielded a switch fluorescence ratio of 1.01 ± 0.028. In the case of CGGCCTTACC, the switch fluorescence ratio is reported as 1.334 ± 0.0037. Sequence CGGCCTTAGA has a switch fluorescence ratio of 0.985 ± 0.029. CGGCGAAGGG showed a switch fluorescence ratio of 0.961 ± 0.014. CGGCGAATCC was tested, and the switch fluorescence ratio was 1.033 ± 0.0088. In the case of CGGCGAGATA, the switch fluorescence ratio is reported as 1.01 ± 0.029. CGGCGCCTGC gave a switch fluorescence ratio of 1.08 ± 0.039. CGGCGCGTAG gave a switch fluorescence ratio of 1.05 ± 0.031. CGGCGGCTTC showed a switch fluorescence ratio of 1.01 ± 0.028. With CGGCGTAAAA the switch fluorescence ratio was 1.13 ± 0.21. In the case of CGGCGTCGGG, the switch fluorescence ratio is reported as 1 ± 0.032. CGGCGTTCCG gave a switch fluorescence ratio of 1 ± 0.055. Sequence CGGCTACCCG has a switch fluorescence ratio of 0.989 ± 0.049. Work on CGGCTATCTC yielded a switch fluorescence ratio of 1.381 ± 0.011. In the case of CGGCTATTAC, the switch fluorescence ratio is reported as 3.64 ± 1.3. With CGGCTCTTTG the switch fluorescence ratio was 0.985 ± 0.043. CGGCTGGTAC showed a switch fluorescence ratio of 1.86 ± 0.027. Sequence CGGCTGGTTC has a switch fluorescence ratio of 0.98 ± 0.04. Sequence CGGCTGTATG has a switch fluorescence ratio of 0.988 ± 0.035. CGGCTTACCC showed a switch fluorescence ratio of 1.14 ± 0.2. With CGGCTTACGT the switch fluorescence ratio was 0.993 ± 0.016. CGGCTTGCTG gave a switch fluorescence ratio of 1.03 ± 0.018. For CGGCTTTATA, the switch fluorescence ratio was 1.02 ± 0.028. Sequence CGGCTTTTGT has a switch fluorescence ratio of 1 ± 0.029. CGGGAAGCAC showed a switch fluorescence ratio of 1.53 ± 0.34. In the case of CGGGACAAGT, the switch fluorescence ratio is reported as 0.982 ± 0.041. Work on CGGGACACGT yielded a switch fluorescence ratio of 0.9677 ± 0.0063.

— the supplement of paper PMC10126150
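Further: ATP exposure 15 min at 22 °C before imaging.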
